In article PMC10692919, “Characterization of erythroferrone structural domains relevant to its iron-regulatory function” (The Journal of Biological Chemistry, 2023):

B1: ERFE 18-mer peptide 121-138 (peptide, UniProt Q4G0M1 121-138, looked up)
peptide: GPPGPIIPPEALLKEFQL
notes: human erythroferrone (ERFE), residues 121-138; source: synthetic peptide (GenScript, ≥70% purity)
B2: ERFE 18-mer peptide 133-150 (peptide, UniProt Q4G0M1 133-150, looked up)
peptide: LKEFQLLLKGAVRQRERA
notes: human erythroferrone (ERFE), residues 133-150; source: synthetic peptide (GenScript, ≥70% purity)
B3: ERFE 18-mer peptide 97-114 (peptide, UniProt Q4G0M1 97-114, looked up)
peptide: KRSRGKAKKLKFGLPGPP
notes: also called cationic 18-mer peptide; source: synthetic peptide (GenScript, ≥70% purity)
B4: BMP2/6 heterodimer (ligand)
chain 1: QAKHKQRKRLKSSCKRHPLYVDFSDVGWNDWIVAPPGYHAFYCHGECPFPLADHLNSTNHAIVQTLVNSVNSKIPKACCVPTELSAISMLYLDENEKVVLKNYQDMVVEGCGCR
chain 2: SASSRRRQQSRNRSTQSQDVARVSSASDYNSSELKTACRKHELYVSFQDLGWQDWIIAPKGYAANYCDGECSFPLNAHMNATNHAIVQTLVHLMNPEYVPKPCCAPTKLNAISVLYFDDNSNVILKKYRNMVVRACGCH
notes: bone morphogenetic protein 2 chain of the BMP2/6 heterodimer; bone morphogenetic protein 6 chain of the BMP2/6 heterodimer; also called heterodimer of BMP2/6; source: bought: RND Systems #7145-BP-010/CF; copies: 1 + 1
B5: BMP2 homodimer (ligand, UniProt P12643 283-396, looked up)
chain: B4 chain 1
notes: bone morphogenetic protein 2; source: bought: RND Systems #355-BM-010/CF
B6: BMP6 homodimer (ligand, UniProt P22004 375-513, looked up)
chain: B4 chain 2
notes: bone morphogenetic protein 6; source: bought: RND Systems 507-BP-020/CF
B7: ERFE 18-mer peptide 73-90 (peptide, UniProt Q4G0M1 73-90, looked up)
peptide: AHSVDPRDAWMLFVRQSD
notes: human erythroferrone (ERFE), residues 73-90; source: synthetic peptide (GenScript, ≥70% purity)
B8: ERFE N terminus ΔCollagen, 43-148 del109-125 (bacterial) (domain or fragment, human, UniProt Q4G0M1 43-148, looked up)
chain: EPPPGNELPRGPGESRAGPAARPPEPTAERAHSVDPRDAWMLFVRQSDKGVNGKKRSRGKAKKLKFIIPPEALLKEFQLLLKGAVRQRE
notes: also called bacterial ΔCollagen N terminus; source: E. coli Rosetta2(DE3)pLysS, purified (Ni-NTA, TEV cleavage, reverse IMAC); not shown: His6, N-terminal, cleaved; MBP, N-terminal, cleaved

What was measured:
BMP2/6 heterodimer [1] = molecular target: B4; experiment: SPR; scan of overlapping synthetic 18-mer peptides of the ERFE N terminus over BMP2/6, BMP2 or BMP6; 180 s injection, then buffer wash; conditions: both partners purified
BMP2 homodimer [2] = molecular target: B5; experiment: as above; conditions: both partners purified
BMP6 homodimer [3] = molecular target: B6; experiment: as above; conditions: both partners purified
[4] = molecular target: T1, Full-length ERFE (erythroferrone), 43-354, FLAG-tagged (human, UniProt Q4G0M1 43-354); experiment: SPR; Biacore T200, CM5 chip; BMP2, BMP6 or BMP2/6 immobilised by amine coupling (50 μg/ml); FLAG-ERFE variants made in HEK293T as analyte; HBS-EP (0.15 M NaCl, 3 mM EDTA, 0.005% P20, 0.01 M Hepes pH 7.4), 50 μl/min; KD = koff/kon at five concentrations; the paper calls the constants avidities where binding is presumed multivalent; conditions: one partner purified
T1 construct: human erythroferrone (ERFE), mature molecule, residues 43-354; pcDNA3.1(+) backbone; Predominantly a hexamer at low concentration on native PAGE, a smear of 117-460 kDa at high concentration; also called Full length, 43-354; WT, 43-354; source: HEK293T, transiently transfected, in supernatant; not shown: FLAG, N-terminal, kept

[5] = molecular target: T1, Full-length ERFE (erythroferrone), …; experiment: as above; conditions: one partner purified; remark: listed apart in the source
BMP2/6 heterodimer [6] = molecular target: B4; experiment: SPR; Biacore T200, CM5 chip; BMP2, BMP6 or BMP2/6 immobilised by amine coupling (50 μg/ml); purified bacterial untagged ERFE N-terminal variants or synthetic 53-mer segments as analyte; HBS-EP pH 7.4, 50 μl/min; KD = koff/kon at five concentrations; conditions: both partners purified
BMP2 homodimer [7] = molecular target: B5; experiment: as above; conditions: both partners purified
BMP6 homodimer [8] = molecular target: B6; experiment: as above; conditions: both partners purified
BMP2/6 heterodimer [9] = molecular target: B4; experiment: as above; conditions: both partners purified; remark: listed apart in the source
BMP2 homodimer [10] = molecular target: B5; experiment: as above; conditions: both partners purified; remark: listed apart in the source
BMP6 homodimer [11] = molecular target: B6; experiment: as above; conditions: both partners purified; remark: listed apart in the source

| binding result (BMP2/6 heterodimer [1]) | binding result (BMP2 homodimer [2]) | binding result (BMP6 homodimer [3]) | Kd [4] [nM] | koff [5] [s⁻¹] | Binder | further results |
| --- | --- | --- | --- | --- | --- | --- |
| binds | binds | binds |  |  | B1 |  |
| binds | binds | binds |  |  | B2 |  |
| binds | binds | binds |  |  | B3 |  |
|  |  |  | 0.277 | 0.00022 | B4 |  |
|  |  |  | 0.445 | 9e-05 | B5 |  |
|  |  |  | 0.817 | 0.00022 | B6 |  |
| binds | binds | binds |  |  | B7 |  |
|  |  |  |  |  | B8 | Kd (BMP2/6 heterodimer [6]): 50.1 nM; pKd (-log Kd) (BMP2/6 heterodimer [6]): 7.3; Kd (BMP2 homodimer [7]): 3.13 nM; pKd (-log Kd) (BMP2 homodimer [7]): 8.7; Kd (BMP6 homodimer [8]): 0.756 nM; pKd (-log Kd) (BMP6 homodimer [8]): 9.2; koff (BMP2/6 heterodimer [9]): 0.0052 s⁻¹; log kd (BMP2/6 heterodimer [9]): -2.29; koff (BMP2 homodimer [10]): 0.0056 s⁻¹; log kd (BMP2 homodimer [10]): -2.29; koff (BMP6 homodimer [11]): 0.0085 s⁻¹; log kd (BMP6 homodimer [11]): -2.17 |
